# Assay results published in patent publication US20250043302A1, “MUTATED HYDROXYPHENYLPYRUVATE DIOXYGENASE POLYPEPTIDE, AND CODING GENE AND USE THEREOF” (BEIJING DABEINONG BIOTECHNOLOGY CO., LTD., priority 2021, published 2025).
# B1: SbHPPDm-F372A-02: nucleotide sequence encoding Sorghum bicolor HPPD with F372A; vector DBN11759 (nucleic acid)
# DNA: ATGCCGCCCACTCCAACAACTGCTGCTGCGACGGGAGCAGCTGTCGCCGCTGCTTCTGCTGAGCAGGCTGCCTTCAGGCTCGTCGGGCACAGAAATTTTGTTCGTGTAAATCCAAGGAGTGATAGGTTCCACACCTTGGCTTTTCACCACGTGGAGTTGTGGTGTGCTGATGCAGCCTCGGCAGCGGGGCGCTTCTCGTTTGGTCTCGGTGCTCCGCTCGCCGCAAGATCTGATCTTAGCACTGGAAACACAGCGCATGCCTCCCTGCTCCTGCGCTCTGGCGCGCTGGCGTTCCTCTTCACGGCGCCATATGCTCACGGCGCCGACGCCGCCACCGCGTCATTGCCGTCTTTTAGTGCAGCCGAAGCAAGAAGATTTGCAGCAGACCACGGCCTCGCCGTAAGGGCCGTGGCCTTACGTGTCGCCGATGCCGAAGATGCTTTCCGCGCCTCTGTAGCAGCTGGAGCAAGGCCAGCATTTGAACCTGTTGAATTGGGGTTAGGATTCCGTCTTGCAGAAGTTGAGCTTTATGGCGACGTTGTTTTGAGATACGTTTCATATCCTGATGACGCTGACGCTAGCTTCTTGCCTGGTTTTGTGGGGGTGACATCACCTGGGGCAGCAGATTATGGTCTCAGGCGGTTTGATCATATTGTTGGAAACGTTCCTGAACTCGCGCCGGCGGCAGCCTACTTCGCCGGTTTCACTGGGTTTCATGAATTTGCTGAATTCACAGCCGAGGATGTCGGCACCACCGAGAGTGGACTGAACTCCATGGTGCTGGCCAACAATGCAGAGAATGTCCTTCTTCCCTTGAATGAACCAGTTCATGGAACAAAAAGGCGTTCCCAAATACAAACATACCTCGACCATCATGGTGGACCAGGCGTTCAGCATATGGCTCTCGCTAGTGACGATGTTCTACGAACCCTGCGAGAGATGCAGGCGCGGTCTGCAATGGGAGGATTTGAGTTCATGGCACCTCCTGCCCCTGAATATTATGATGGTGTTCGGAGAAGGGCAGGTGATGTGCTAACTGAAGCTCAAATCAAGGAGTGCCAGGAGCTTGGCGTGCTGGTCGATCGGGATGATCAAGGTGTGCTTCTGCAGATTGCCACTAAACCAGTGGGTGACCGCCCCACGCTGTTCCTAGAGATCATCCAGAGAATAGGGTGCATGGAGAAGGACGAAAAAGGACAAGAGTACCAGAAGGGAGGTTGTGGCGGCTTTGGAAAAGGGAACTTCTCCCAATTATTCAAGTCAATTGAAGACTATGAAAAGAGTTTGGAGGCTAAGCAAGCTGCAGCCGCCCAGGGCAGCTGA
# modifications: SbHPPDm-F372A-02 Nucleotide Sequence
# notes: vector DBN11759
# Key:
# Assay type in all cases: in vivo
# [1] = tested on: soybean T1 plants; test: Isoxaflutole tolerance of transgenic soybean T1 plants; settings: different concentrations
# [2] = tested on: soybean T1 plants; test: Mesotrione tolerance of transgenic soybean T1 plants; settings: different concentrations
# [3] = tested on: Arabidopsis thaliana T1 plants; test: Isoxaflutole tolerance of transgenic Arabidopsis thaliana T1 plants (spray, bleached leaf area grade, damage score); design: Scores (pesticide damage): scale not given here; settings: spray, Arabidopsis thaliana T1 plants; for Classification and statistics of the grade of pesticide damage: Grade 0 (number of plants) / Classification and statistics of the grade of pesticide damage: Grade 1 (number of plants) / Classification and statistics of the grade of pesticide damage: Grade 2 (number of plants) / Classification and statistics of the grade of pesticide damage: Grade 3 (number of plants): 16 plants
# How it was run: (§1)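 Read-out: per-plant damage grade 0–3 from proportion of bleached leaf area at 7 DAT (1 <50%, 2 >50%, 3 100%). Plants were T1 transformants, glufosinate-selected, plus wild-type CK, sprayed 18 days post-sowing. Rates: topramezone 25–200, isoxaflutole 35–280, mesotrione 52.5–420 g ai/ha.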
# [4] = tested on: Arabidopsis thaliana T1 plants; test: Mesotrione tolerance of transgenic Arabidopsis thaliana T1 plants (spray, bleached leaf area grade, damage score); design: Scores: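 damage score 0-100 computed as Σ(N×S)/(T×M)×100 over grades 0-3 with higher meaning more damage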; settings: Arabidopsis thaliana T1 plants; for Grade 0 (classification and statistics of the grade of pesticide damage; number of plants) / Grade 1 (classification and statistics of the grade of pesticide damage; number of plants) / Grade 2 (classification and statistics of the grade of pesticide damage; number of plants) / Grade 3 (classification and statistics of the grade of pesticide damage; number of plants): 16 plants
# How it was run: as §1
# [5] = tested on: soybean T1 plants; test: Topramezone tolerance of transgenic soybean T1 plants; settings: different concentrations
# Method: T1 transformants were initially selected from the untransformed seeds using a glufosinate selection scheme. […] The degree of damage caused by the herbicide was measured for each plant according to the proportion of bleached leaf area (the proportion of bleached leaf area=bleached leaf area/total leaf area×100%) 7 days after spraying (7 DAT): the case where there is basically no bleached phenotype is defined as grade 0, the case where the proportion of bleached leaf area is less than 50% is defined as grade 1, the case where the proportion of bleached leaf area is more than 50% is defined as grade 2, and the case where the proportion of bleached leaf area is 100% grade is defined as grade 3.
# The soybean T1 plants into which the SbHPPD-02 nucleotide sequence was introduced, soybean T1 plants into which the SbHPPDm-F372A-02 nucleotide sequence was introduced, soybean T1 plants into which the SbHPPDm-F383W-02 nucleotide sequence was introduced, soybean T1 plants into which the SbHPPDm-F372A-F383W-02 nucleotide sequence was introduced, soybean T1 plants into which the control vector DBN11726N nucleotide sequence was introduced, and wild-type soybean plants (V3-V4 at seedling stage) were sprayed with topramezone at three different concentrations (i.e., 25 g ai/ha (one-fold field concentration, 1×). […] According to the method in point 6 of Example 1, after 7 days of spraying (7 DAT), the damage degree of each plant by the herbicide was statistically analyzed, and the scoring and resistance evaluation were carried out accordingly. […]
# [6] = tested on: Arabidopsis thaliana T1 plants; test: Topramezone tolerance of transgenic Arabidopsis thaliana T1 plants (spray, bleached leaf area grade, damage score); settings: 7 DAT, Table 4; for Classification and statistics of the grade of pesticide damage: Grade 0 / Classification and statistics of the grade of pesticide damage: Grade 1 / Classification and statistics of the grade of pesticide damage: Grade 2 / Classification and statistics of the grade of pesticide damage: Grade 3: number of plants; for Scores: pesticide damage score 0-100
# How it was run: as §1
# [7] = isoxaflutole 35 g ai/ha (0.5x field concentration)
# [8] = isoxaflutole 70 g ai/ha (1x field concentration)
molecule,measurement,setting,value
B1,tolerance to HPPD-inhibitor herbicides (in words): isoxaflutole,[1],different degrees of tolerance
same,tolerance to HPPD-inhibitor herbicides (in words): mesotrione,[2],different degrees of tolerance
same,Resistance evaluation,[3]; [7],Poorly
same,Scores (pesticide damage),[3]; [7],67
same,Classification and statistics of the grade of pesticide damage: Grade 0 (number of plants),[3]; [7],0
same,Classification and statistics of the grade of pesticide damage: Grade 1 (number of plants),[3]; [7],2
same,Classification and statistics of the grade of pesticide damage: Grade 2 (number of plants),[3]; [7],12
same,Classification and statistics of the grade of pesticide damage: Grade 3 (number of plants),[3]; [7],2
same,Resistance evaluation,[3]; [8],Non-resistant
same,Scores (pesticide damage),[3]; [8],100
same,Classification and statistics of the grade of pesticide damage: Grade 0 (number of plants),[3]; [8],0
same,Classification and statistics of the grade of pesticide damage: Grade 1 (number of plants),[3]; [8],0
same,Classification and statistics of the grade of pesticide damage: Grade 2 (number of plants),[3]; [8],0
same,Classification and statistics of the grade of pesticide damage: Grade 3 (number of plants),[3]; [8],16
same,Resistance evaluation,[4]; mesotrione 52.5 g ai/ha,Poorly resistant
same,Scores,[4]; mesotrione 52.5 g ai/ha,60
same,Grade 0 (classification and statistics of the grade of pesticide damage; number of plants),[4]; mesotrione 52.5 g ai/ha,0
same,Grade 1 (classification and statistics of the grade of pesticide damage; number of plants),[4]; mesotrione 52.5 g ai/ha,6
same,Grade 2 (classification and statistics of the grade of pesticide damage; number of plants),[4]; mesotrione 52.5 g ai/ha,7
same,Grade 3 (classification and statistics of the grade of pesticide damage; number of plants),[4]; mesotrione 52.5 g ai/ha,3
same,Resistance evaluation,[4]; mesotrione 105 g ai/ha,Non-resistant
same,Scores,[4]; mesotrione 105 g ai/ha,100
same,Grade 0 (classification and statistics of the grade of pesticide damage; number of plants),[4]; mesotrione 105 g ai/ha,0
same,Grade 1 (classification and statistics of the grade of pesticide damage; number of plants),[4]; mesotrione 105 g ai/ha,0
same,Grade 2 (classification and statistics of the grade of pesticide damage; number of plants),[4]; mesotrione 105 g ai/ha,0
same,Grade 3 (classification and statistics of the grade of pesticide damage; number of plants),[4]; mesotrione 105 g ai/ha,16
same,tolerance to HPPD-inhibitor herbicides (in words): topramezone,[5],different degrees of tolerance
same,Classification and statistics of the grade of pesticide damage: Grade 0,[6]; topramezone 25 g ai/ha (1×),16
same,Classification and statistics of the grade of pesticide damage: Grade 1,[6]; topramezone 25 g ai/ha (1×),0
same,Classification and statistics of the grade of pesticide damage: Grade 2,[6]; topramezone 25 g ai/ha (1×),0
same,Classification and statistics of the grade of pesticide damage: Grade 3,[6]; topramezone 25 g ai/ha (1×),0
same,Classification and statistics of the grade of pesticide damage: Grade 0,[6]; topramezone 100 g ai/ha (4×),4
same,Classification and statistics of the grade of pesticide damage: Grade 1,[6]; topramezone 100 g ai/ha (4×),4
same,Classification and statistics of the grade of pesticide damage: Grade 2,[6]; topramezone 100 g ai/ha (4×),8
same,Classification and statistics of the grade of pesticide damage: Grade 3,[6]; topramezone 100 g ai/ha (4×),0
same,Scores,[6]; topramezone 25 g ai/ha (1×),0
same,Scores,[6]; topramezone 100 g ai/ha (4×),42
same,Resistance evaluation,[6]; topramezone 25 g ai/ha (1×),highly
same,Resistance evaluation,[6]; topramezone 100 g ai/ha (4×),poorly
